The source of these data is patent US20220281949A1 (UNIVERSITY HEALTH NETWORK, published 2022).

The test concerns the target T1, soluble CD4 (sCD4): human CD4 extracellular domain fused with a 6×His tag via a GS linker (human, UniProt P01730 26-396).
T1 construct: Produced in HEK293T supernatant; for staining the monomer was dimerized with a PE-labeled anti-6×His mAb (AD1.1.10); also called dimerized sCD4
Description: flow cytometry: K562 cells expressing the class II molecule stained with sCD4 dimerized by PE anti-His mAb. Background: In flow cytometry, cells or beads pass a laser one at a time.

B1: wild-type DR1 (DRA1*01:01/DRB1*01:01) on K562 cells (peptide-MHC, human)
MHC II alpha: not shown
MHC II beta: not shown
notes: whole, on cells; Stably transduced in class II-deficient K562 cells
Turning to B1, the binding result is on record as “no binding”.
